The text below walks through data of patent publication US20080038748.

For this data set, the target named is T1, human recombinant LAP β1 (R&D), not treated with protease.
T1 chain: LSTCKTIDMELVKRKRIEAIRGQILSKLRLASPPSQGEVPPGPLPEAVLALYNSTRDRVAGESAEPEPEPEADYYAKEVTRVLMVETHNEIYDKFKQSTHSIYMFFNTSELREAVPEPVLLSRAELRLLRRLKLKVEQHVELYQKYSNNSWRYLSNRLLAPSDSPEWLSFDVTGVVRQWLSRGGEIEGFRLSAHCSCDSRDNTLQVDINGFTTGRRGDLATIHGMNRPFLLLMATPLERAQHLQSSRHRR

B1: human matrix metalloprotease 2 (MMP2) (Alexis), APMA-activated (protein)
chain: YNFFPRKPKWDKNQITYRIIGYTPDLDPETVDDAFARAFQVWSDVTPLRFSRIHDGEADIMINFGRWEHGDGYPFDGKDGLLAHAFAPGTGVGGDSHFDDDELWTLGEGQVVRVKYGNADGEYCKFPFLFNGKEYNSCTDTGRSDGFLWCSTTYNFEKDGKYGFCPHEALFTMGGNAEGQPCKFPFRFQGTSYDSCTTEGRTDGYRWCGTTEDYDRDKKYGFCPETAMSTVGGNSEGAPCVFPFTFLGNKYESCTSAGRSDGKMWCATTANYDDDRKWGFCPDQGYSLFLVAAHEFGHAMGLEHSQDPGALMAPIYTYTKNFRLSQDDIKGIQELYGASPDIDLGTGPTPTLGPVTPEICKQDIVFDGIAQIRGEIFFFKDRFIWRTVTPRDKPMGPLLVATFWPELPEKIDAVYEAPQEEKAVFFAGNEYWIYSASTLERGYPKPLTSLGLPPDVQRVDAAFNWSKNKKTYIFAGDKFWRYNEVKKKMDPGFPKLIADAWNAIPDNLDAVVDLQGGGHSYFFKGAYYLKLENQSLKSVKFGSIKSDWLGC
With B1, the “degradation of LAP β1 (SDS-PAGE, silver staining)” value is given as “degradation of LAP could not be confirmed”.

B2: human blood-derived plasmin (PLN) (Sigma) (protein)
chain: KVYLSECKTGNGKNYRGTMSKTKNGITCQKWSSTSPHRPRFSPATHPSEGLEENYCRNPDNDPQGPWCYTTDPEKRYDYCDILECEEECMHCSGENYDGKISKTMSGLECQAWDSQSPHAHGYIPSKFPNKNLKKNYCRNPDRELRPWCFTTDPNKRWELCDIPRCTTPPPSSGPTYQCLKGTGENYRGNVAVTVSGHTCQHWSAQTPHTHNRTPENFPCKNLDENYCRNPDGKRAPWCHTTNSQVRWEYCKIPSCDSSPVSTEQLAPTAPPELTPVVQDCYHGDGQSYRGTSSTTTTGKKCQSWSSMTPHRHQKTPENYPNAGLTMNYCRNPDADKGPWCFTTDPSVRWEYCNLKKCSGTEASVVAPPPVVLLPDVETPSEEDCMFGNGKGYRGKRATTVTGTPCQDWAAQEPHRHSIFTPETNPRAGLEKNYCRNPDGDVGGPWCYTTNPRKLYDYCDVPQCAAPSFDCGKPQVEPKKCPGRVVGGCVAHPHSWPWQVSLRTRFGMHFCGGTLISPEWVLTAAHCLEKSPRPSSYKVILGAHQEVNLEPHVQEIEVSRLFLEPTRKDIALLKLSSPAVITDKVIPACLPSPNYVVADRTECFITGWGETQGTFGAGLLKEAQLPVIENKVCNRYEFLNGRVQSTELCAGHLAGGTDSCQGDSGGPLVCFEKDKYILQGVTSWGLGCARPNKPGVYVRVSRFVTWIEGVMRNN
B2: the “limited degradation on longer incubation; cleavage sites by N-terminal sequencing” value was “plasmin successively cleaved between 85 Arg and 86 Asp, and between 106 Lys and 107 Glu”; the “limited degradation; cleavage site by N-terminal sequencing of the fragments” value was “plasmin specifically cleaves between 56 Lys and 57 Leu of latent TGF-β”.

B3: human matrix metalloprotease 9 (MMP9) (Alexis), APMA-activated (protein)
chain: MRTPRCGVPDLGRFQTFEGDLKWHHHNITYWIQNYSEDLPRAVIDDAFARAFALWSAVTPLTFTRVYSRDADIVIQFGVAEHGDGYPFDGKDGLLAHAFPPGPGIQGDAHFDDDELWSLGKGVVVPTRFGNADGAACHFPFIFEGRSYSACTTDGRSDGLPWCSTTANYDTDDRFGFCPSERLYTQDGNADGKPCQFPFIFQGQSYSACTTDGRSDGYRWCATTANYDRDKLFGFCPTRADSTVMGGNSAGELCVFPFTFLGKEYSTCTSEGRGDGRLWCATTSNFDSDKKWGFCPDQGYSLFLVAAHEFGHALGLDHSSVPEALMYPMYRFTEGPPLHKDDVNGIRHLYGPRPEPEPRPPTTTTPQPTAPPTVCPTGPPTVHPSERPTAGPTGPPSAGPTGPPTAGPSTATTVPLSPVDDACNVNIFDAIAEIGNQLYLFKDGKYWRFSEGRGSRPQGPFLIADKWPALPRKLDSVFEERLSKKLFFFSGRQVWVYTGASVLGPRRLDKLGLGADVAQVTGALRSGRGKMLLFSGRRLWRFDVKAQMVDPRSASEVDRMFPGVPLDTHDVFQYREKAYFCQDRFYWRVSSRSELNQVDQVGYVTYDILQCPED
With B3, the “degradation of LAP β1 (SDS-PAGE, silver staining)” value is given as “degradation of LAP could not be confirmed”.
